40 molecules from patent US20130197191A1 (Amgen, published 2013) can be followed below.

T1: human FGFR1c-Fc (human, UniProt P11362 22-376)
T1 construct: also called huFGFR1c-Fc; huFGFR1c/Fc
T1 sequence: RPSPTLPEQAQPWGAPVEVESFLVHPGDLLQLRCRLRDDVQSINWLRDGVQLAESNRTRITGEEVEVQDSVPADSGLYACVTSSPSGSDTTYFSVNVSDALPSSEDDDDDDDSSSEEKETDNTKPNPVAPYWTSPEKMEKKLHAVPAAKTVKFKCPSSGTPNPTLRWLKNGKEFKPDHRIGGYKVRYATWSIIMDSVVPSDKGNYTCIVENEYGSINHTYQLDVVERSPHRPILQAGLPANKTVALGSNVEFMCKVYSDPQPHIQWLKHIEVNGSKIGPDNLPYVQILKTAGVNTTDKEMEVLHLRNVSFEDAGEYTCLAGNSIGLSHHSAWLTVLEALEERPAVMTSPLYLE

T2: recombinant human β-Klotho (human, UniProt Q86Z14 53-996, limits assumed, biotinylated in the AlphaScreen assays (site not stated))
T2 construct: also called rhβ-klotho; huβKlotho-His
T2 sequence: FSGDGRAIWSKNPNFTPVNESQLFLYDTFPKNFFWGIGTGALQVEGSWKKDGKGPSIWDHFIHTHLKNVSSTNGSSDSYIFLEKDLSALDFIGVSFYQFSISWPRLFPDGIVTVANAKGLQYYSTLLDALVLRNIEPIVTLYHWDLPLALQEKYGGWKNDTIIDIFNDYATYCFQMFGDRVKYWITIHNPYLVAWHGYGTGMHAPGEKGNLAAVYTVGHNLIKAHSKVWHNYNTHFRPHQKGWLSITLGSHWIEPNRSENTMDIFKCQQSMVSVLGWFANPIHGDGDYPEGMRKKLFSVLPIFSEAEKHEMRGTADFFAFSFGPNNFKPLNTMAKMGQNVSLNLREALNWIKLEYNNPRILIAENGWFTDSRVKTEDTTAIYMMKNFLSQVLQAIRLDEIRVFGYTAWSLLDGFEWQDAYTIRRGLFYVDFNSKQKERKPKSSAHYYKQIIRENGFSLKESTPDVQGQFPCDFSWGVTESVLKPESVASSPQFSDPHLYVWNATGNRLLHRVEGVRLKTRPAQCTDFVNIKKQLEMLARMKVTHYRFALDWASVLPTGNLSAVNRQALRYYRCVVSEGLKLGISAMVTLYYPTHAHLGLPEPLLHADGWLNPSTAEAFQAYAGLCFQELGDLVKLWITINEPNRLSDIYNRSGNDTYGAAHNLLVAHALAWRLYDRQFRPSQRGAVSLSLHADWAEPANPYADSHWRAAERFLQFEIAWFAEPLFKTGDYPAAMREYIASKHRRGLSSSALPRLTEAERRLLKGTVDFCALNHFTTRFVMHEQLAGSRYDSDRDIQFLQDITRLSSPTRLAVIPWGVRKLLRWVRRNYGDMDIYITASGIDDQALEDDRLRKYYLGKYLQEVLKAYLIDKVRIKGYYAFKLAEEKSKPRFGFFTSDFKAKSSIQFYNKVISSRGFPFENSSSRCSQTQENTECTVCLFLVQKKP

B1: FGFR1c-binding monomer M12 (designed binder)
chain: CGAGQFTCRSTNICLPLQWVCDGVDDCEDNSDEAGCGDSHILPFSTPGPST
B2: FGFR1c-binding monomer M26 (designed binder)
chain: CGSSQFTCHNTNICLPRARVCDGVDDCEDNSDEAGCGDSHILPFSTPGPST

One assay addresses T1, human FGFR1c-Fc. As to the kind of experiment: phage panning.
CRLNEFPCGSGSCISLHWVCDSVPDCRDDSDETDCPERT (designed binder) [FGFR1c-binding monomer M33]: the binding result is given as “binds”.
In the case of B1, the binding result is given as “binds”.
In the case of CLSDQFTCRSTNICLPLQWVCDGDDDCEDNSDEEDCSAPASEPPGSL (designed binder, also called R1cM31) [FGFR1c-binding monomer M31], the binding result is reported as “binds”.
Consider CGAGQFTCRDTNICISRAWRCDGVDDCEDNSDEADCSQDPEFHKV (designed binder, also called R1cM08) [FGFR1c-binding monomer M08], for which the binding result is listed as “binds”.
The same measure, in the same setting: the result for CGSSQFTCHNTNICLPRAWVCDGVDDCEDNSDEKNCSAPASEPPGSL (designed binder) [FGFR1c-binding monomer M29] reads “binds”; that for B2, “binds”; that for CGPNQFTCRSTNICLSQTWVCDGVDDCEDGSDETNCGRPGPGATSAPAA (designed binder) [FGFR1c-binding monomer M20], “binds”.

A further assay deals with T1, human FGFR1c-Fc. As to the kind of experiment: phage panning. This is another data set of the same source.
Take CGSNLFTCRSTNICISPAWVCDGVDDCDDDSDETGCSQDPEFHKV (designed binder, also called M23mutM16) [FGFR1c-binding monomer M23mut16]: the binding result is “binds”.
Take CGPNLFTCRSTNICISRAWVCDGVDDCDDESDEQGCSQDPEFHKV (designed binder) [FGFR1c-binding monomer M23mut13]: the binding result was “binds”.
CGSNLFTCRRTNICISKAWVCDGVDDCEDNSDETGCSQDPEFHKV (designed binder, also called M23mutM15) [FGFR1c-binding monomer M23mut15]: the binding result is reported as “binds”.
On to CGANLFTCRSTNICISPTWVCDGVDDCDDNSDEIGCSQDLEFHKV (designed binder) [FGFR1c-binding monomer M23mut12], for which the binding result is reported as “binds”.
CGANLFTCRSTNICISPAWVCDGVDDCEDYSDEIGCSQDPEFHKV (designed binder, also called M23mutM11) [FGFR1c-binding monomer M23mut11]: the binding result was “binds”.
In the case of CGANLFTCQSTNICISDAWVCDGVDDCEDNSDETTCSQDPEFHKV (designed binder, also called M23mutM10) [FGFR1c-binding monomer M23mut10], the binding result was “binds”.
On to CGTNMFTCQRTNICISDAWVCDGVDDCEDYSDETACSQDPEFHKV (designed binder) [FGFR1c-binding monomer M23mut18], for which the binding result was “binds”.
Still for that read-out and setting: under CGSDMFTCRSTNICISKVWVCDGVDDCEDDSDERGCSQDPEFHKV (designed binder, also called M23mutM14) [FGFR1c-binding monomer M23mut14] stands “binds”.

Another assay deals with T2, recombinant human β-Klotho. As to the kind of experiment: phage panning.
With CSRAHFHCLSGECIHHHWRCDGGPDCKDKSDEENCPTKRPEEV (designed binder) [β-Klotho-binding monomer M41], the binding result is recorded as “binds”.
Same read-out and setting: under CRSSEFPCHGYSTCISLSLLCDGVDDCADNSDEESCRAAGHT (designed binder) [β-Klotho-binding monomer M34] stands “binds”; under CSAFEFHCLSGECIHSSWRCDMDWDCKDQPDQLWCALET (designed binder) [β-Klotho-binding monomer M37], “binds”; under CSAFEFHCLSGECIHSSWRCDWDLDCKDHPDEVMCALEA (designed binder) [β-Klotho-binding monomer M39], “binds”.

The next assay has as its target T2, recombinant human β-Klotho. As to the kind of experiment: phage panning. The source holds these as a separate data set.
For the molecule CLYQDCKEYYGDGNCSKGCNLAECLWDGGDCGTIFLADVT (designed binder) [β-Klotho-binding monomer LNR_M07], the binding result is “binds”.
CNPVYDPYCAAFFGDGGCGPHCGLAECVWDGMDCDHKEVRELT (designed binder) [β-Klotho-binding monomer LNR_M19]: the binding result is reported as “binds”.
CMAYLLCKKYYGDGICRSECDTATCSWDGFDCPVNEIEDLT (designed binder) [β-Klotho-binding monomer LNR_M09]: the binding result is listed as “binds”.
On to CHPLIREYCTHYDGDGECDKGCDSAKCKWDGDDCDMDVLAEVT (designed binder) [β-Klotho-binding monomer LNR_M21], for which the binding result is listed as “binds”.
Take CIAAKLCEALDGDGVCHKECDLEECDWDGGDCQRIFLTDPT (designed binder) [β-Klotho-binding monomer LNR_M01]: the binding result is “binds”.
Consider CIAAKLCERLDGDGSCQSECGNATCGWDGMDCDEKENDELT (designed binder) [β-Klotho-binding monomer LNR_M08], for which the binding result is “binds”.
Still for that read-out and setting: under CHPLIREYCEKFFGDGGCDSGCNNSRCDWDGDDCGLIQHGDVT (designed binder) [β-Klotho-binding monomer LNR_M14] stands “binds”; under CREYSMCTRFDGDGICHEQCGYPRCLWDGLDCANNFDHEVT (designed binder) [β-Klotho-binding monomer LNR_M12], “binds”.
Consider CPAHYGTHCEERDGDGKCHQGCDFATCDWDGMDCGMDLVRELT (designed binder) [β-Klotho-binding monomer LNR_M17], for which the binding result is reported as “binds”.
In the case of CMEAKSCQARDGDGDCGQGCNLAECIWDGMDCRPEWIRELT (designed binder) [β-Klotho-binding monomer LNR_M06], the binding result is “binds”.
As to CNPPIGQYCTQLFGDGDCGPDCDLAECVWDGDDCDPVAVPDVT (designed binder) [β-Klotho-binding monomer LNR_M18], the binding result is reported as “binds”.
Still for that read-out and setting: the result for CNPPIGQYCTQLFGDGDCGPECNLAECVWDGDDCDPVAVPELT (designed binder) [β-Klotho-binding monomer LNR_M20] reads “binds”; that for CMAYNLCTALVGDGECDQECDTPTCNWDGGDCAVKSAPDST (designed binder) [β-Klotho-binding monomer LNR_M05], “binds”; that for CREYISCPNFYGDGRCQQDCNLAKCVWDGLDCADVWSEDLT (designed binder) [β-Klotho-binding monomer LNR_M04], “binds”.
For CNPLYDDHCAAFFGDGGCGPECSLAECLWDGGDCEEERDADVT (designed binder) [β-Klotho-binding monomer LNR_M15], the binding result is reported as “binds”.
In the case of CNPLYDPHCRSYFGDGDCGPGCDLAACLWDGGDCPGVAAAELT (designed binder) [β-Klotho-binding monomer LNR_M13], the binding result is reported as “binds”.
Regarding CPPHIEDHCERRDGDGVCQKPCDFYGCLWDGVNCDMDLVQELT (designed binder) [β-Klotho-binding monomer LNR_M02], the binding result was “binds”.
Still for that read-out and setting: the result for CPPHIEDHCERRDGDGVCQKPCDFYGCLWDGVDCDMDLVEELT (designed binder) [β-Klotho-binding monomer LNR_M10] reads “binds”; that for CMAYNLCQALVGDGSCNSECDTETCGWDGMDCATVEGAEAT (designed binder) [β-Klotho-binding monomer LNR_M11], “binds”; that for CNPKYDAHCASYFGDGECDPACSLAECVWDGDDCDPNFLTDVT (designed binder) [β-Klotho-binding monomer LNR_M16], “binds”.
On the same count and under the same terms, under CNPIIQHYCETYDGDGLCESACNFYGCAWDGFDCQVISDKDST (designed binder) [β-Klotho-binding monomer LNR_M03] stands “binds”.
